B1: NOV796 (antibody, V domains shown)
VH: QVQLVQSGPGLVKPSETLSLTCSVSGGSISGYYWSWIRQPPGKGLEWIGLIYESGSANYNPSLKSRVTISLDTSKNQFSLKLKSVTAADTAVYYCARRVRGWSYGMDVWGQGTTVAVSS
VL: DIVLTQSPGTLSLSPGETATLSCRASQILSSSFLAWFQQIPGQAPRLLIYAASSRATGIPDRFSGSGSGTDFSLTISRLEPEDFAVYYCQHYGSSPPWTFGQGTKVEIKR
B2: NOV530 (antibody, V domains shown)
VH: QVQLQESGPGLVKPSQTLSLTCTVSGGSISGGGYYWSWIRQHPGKGLEFIGYIYYNRGTYYNPALKSRLTISVDTSKNDFSLKLSSVSAADTAVYYCARCVLGGYGSDAFDRWGQGTTVTVAS
VL: EIVLTQSPVTLSLSPGERAILSCRASQSVSSHLAWYQQKPGQAPRLLIYDASSRANGIPARFSGSGSGTDFTLTISSLAPEDFAVYYCQQRSSWPPSLTFGGGTKVEIRR
B3: NOV581 (antibody, V domains shown)
VH: QVQLVESGGGLVQPGGSLRLSCVASGFTFSGYNMHWVRQAPGKGLEWVSYISNSGRTIYYADSVKGRFTLSRDNAKNSLYLQMNSLRAEDTAVYFCARDRDPQWLGNDALQIWGQGTMVTVSS
VL: EIVLTQSPGTLSLSPGERATLSCRASQSVSSGYLAWYQQKPGQAPRLLIYGASSRATGIPDRFSGSGSGTDFTLTISRLEPEDFAVYYCQQYGTSRKTFGQGTKVEIKR

Key:
Assay in all cases: SET
[1] = biological target: BKV serotype III (ST3) virus-like particles (VLPs) (UniProt P14996 1-362)
[2] = biological target: BKV serotype II (ST2) virus-like particles (VLPs) (UniProt P14996 1-362)
[3] = biological target: BKV serotype IV (ST4) virus-like particles (VLPs) (UniProt P14996 1-362)
[4] = biological target: BKV serotype I (ST1) virus-like particles (VLPs) (UniProt P03088 1-362)

| Binder | Kd [1] | Kd [2] | Kd [3] | Kd [4] |
| --- | --- | --- | --- | --- |
| B1 | 0.007 nM | 0.006 nM | 0.0009 nM | 0.003 nM |
| B2 | – | – | – | 0.015 nM |
| B3 | 0.092 nM | 0.069 nM | > 6.6 nM | 0.044 nM |

— patent publication US20200384109A1 (published 2020)
